Our source for the Kd, koff and kon values is patent US20230212235A1.

The Kd is the concentration at which binding is half-saturated. The term koff denotes a measure of how fast the partners let go of each other. As a reminder, the kon is a measure of how fast the partners come together.

Test [1] concerns the target GFP [GFP: P42212]. Kind of test: SPR, GFP immobilised, nanobody injected; equilibrium Kd. On the technique in general: SPR reads the build-up and loss of mass on a sensor chip optically.
Test [2] deals with GFP [GFP: P42212]. Description: SPR, GFP immobilised; order of magnitude told of all four nanobodies.
The target of test [3] is GFP [GFP: P42212]. Kind of test: SPR, GFP immobilised, nanobody injected; kinetic Kd.

“GBN^WT (wild-type GFP-binding nanobody) (VHH)” registered a Kd in test [1] of 233 nM. In test [2], the koff came to 0.0001 s⁻¹ and the kon is 10000 M⁻¹ s⁻¹. The same substance came in with a Kd in test [3] of 18.9 nM.
